Assay results as given in patent US20260103488A1.

Biological target: Lck(h) (lymphocyte-specific protein tyrosine kinase) (human) (UniProt P06239)
Test: cell-based or functional assay

Sequence of Lck(h) (lymphocyte-specific protein tyrosine kinase) (human) (P06239 whole entry): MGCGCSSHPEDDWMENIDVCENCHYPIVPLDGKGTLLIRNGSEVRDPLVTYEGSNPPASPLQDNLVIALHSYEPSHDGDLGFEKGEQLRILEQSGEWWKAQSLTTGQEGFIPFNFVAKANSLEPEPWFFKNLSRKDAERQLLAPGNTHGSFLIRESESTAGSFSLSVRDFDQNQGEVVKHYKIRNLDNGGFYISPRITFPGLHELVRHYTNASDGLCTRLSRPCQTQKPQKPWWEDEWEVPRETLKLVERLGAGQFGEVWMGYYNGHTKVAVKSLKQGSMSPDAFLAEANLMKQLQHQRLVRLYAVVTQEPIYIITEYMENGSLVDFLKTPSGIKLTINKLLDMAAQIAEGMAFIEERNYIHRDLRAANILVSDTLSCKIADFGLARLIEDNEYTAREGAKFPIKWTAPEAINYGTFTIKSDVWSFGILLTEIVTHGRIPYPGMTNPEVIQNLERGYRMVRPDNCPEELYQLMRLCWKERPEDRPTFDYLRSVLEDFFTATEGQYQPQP

- Lck activity, percentage relative to control, in vitro kinase assay, peptide 1 µM (% increase in Lck activity): 490
Substance: rskaknplyrrrrrrrrr (IKD14800) (peptide)
